Assay [1] has as its target taxol-stabilized MTs. Description: co-sedimentation; 6His-Prp31 (10 nM) or 6His-Sf3A2 (13 nM) incubated at RT for 30 min with 2 μM taxol-stabilized MTs (or 2 μM tubulin without Taxol), centrifuged at 100,000 g at RT for 40 min; supernatants and pellets by Western blotting.
In assay [2] the target is taxol-stabilized MTs. Description: co-sedimentation; 6His-Prp31 (10 nM) or 6His-Sf3A2 (13 nM) with increasing amounts of taxol-stabilized MTs (0.25–2 μM of tubulin dimers in MT polymers), 25 mM NaCl, RT 30 min, 100,000 g 40 min; SDS-PAGE and Coomassie staining; three independent experiments.

On to “6His-Sf3A2 (from UniProt Q9VU15 1-264) (natural protein)”, for which the percent co-sedimented with MTs with taxol-stabilized MTs [1] and with taxol-stabilized MTs [2] was more than 80% in each case.

B1: 6His-Prp31 (natural protein)
chain: MSLADELLADLEEDNDNELEEEDSEMASAEDESLLAEKLAKPAPNLMDVDVTVQSVRELCKLRDSERLKNTLQQIEHYASRQRTAAEMLGSVESDPEYCLIVDANAIAVDIDNEISIVHKFTKEKYQKRFPELDSLIVGEIEYLLAVKELGNDLDQVKNNEKLQAILTQATIMIVSVTASTTQGTMLTPAEKAKIDEACEMAIELNNFKSKIYEYVESRMTFIAPNLSMIVGASTAAKLLGIAGGLSKLSKMPACNVQVLGAQKKTLSGFSQTQMLPHTGYVYYSQIVQDTAPDLRRKAARLVAAKSVLAARVDACHESVHGEIGLRFKEDVEKKLDKLQEPPPVKFIKPLPKPIEGSKKKRGGKRVRKMKERYALTEFRKQANRMNFGDIEEDAYQGDLGYSRGTIGKTGTGRIRLPQVDEKTKVRISKTLHKNLQKQQVYGGNTTVKRQISGTASSVAFTPLQGLEIVNPQAAERSQTEANAKYFSNTSGFMSVGQRTT
On to B1, for which the percent co-sedimented with MTs in the assay with taxol-stabilized MTs [1] and in the assay with taxol-stabilized MTs [2] was more than 80% each time.
